As a reminder, the Kd is a measure of binding affinity in units of concentration. A high value points to lower affinity.

For assay [1], the target named is WW2 domain of human YAP2 (residues 230-264) (human) (UniProt P46937). Put plainly: ITC.
The target in assay [2] is WW1 domain of human YAP2 (residues 171-205) (human) (UniProt P46937). The assay is described as follows: ITC. In general terms: ITC needs no label: the signal is the heat of the interaction.
Chain of WW1 domain of human YAP2 (residues 171-205) (human) (P46937 171-205): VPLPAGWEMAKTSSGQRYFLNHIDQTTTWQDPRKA

Chain of WW2 domain of human YAP2 (residues 230-264) (human) (P46937 230-264): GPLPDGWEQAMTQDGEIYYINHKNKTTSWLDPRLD

As for “ErbB4_PY1 peptide (12-mer with the PY1 PPXY motif of the ICD of human ErbB4)”, the dH in assay [1] is -3.9 kcal/mol. In addition, in assay [2], the Kd is 113 µM and the dH is -6.14 kcal/mol.

Turning to “ErbB4_PY2 peptide (12-mer with the PY2 PPXY motif of the ICD of human ErbB4)”, in assay [1], the Kd was determined as 116 µM and the dH is -4.23 kcal/mol. Besides, in assay [2], the Kd amounted to 84 µM and the dH was -2.94 kcal/mol.

Regarding “ErbB4_PY3 peptide, alanine mutant PY3_A+2”, in assay [1], the Kd stood at 126 µM and the dH was -10.1 kcal/mol. Moreover, in assay [2], the dH is -12.7 kcal/mol.

As for “ErbB4_PY3 peptide, alanine mutant PY3_A+4”, in assay [1], the dH is -8.61 kcal/mol. In addition, in assay [2], the Kd was found to be 53 µM and the dH was -9.8 kcal/mol.

As to “ErbB4_PY3 peptide, alanine mutant PY3_A+5”, in assay [1], the Kd was 46 µM and the dH was -14.6 kcal/mol. Also, in assay [2], the Kd came to 15 µM and the dH is -14.6 kcal/mol.

For the substance “ErbB4_PY3 peptide, alanine mutant PY3_A+6”, in assay [1], the Kd came out at 85 µM and the dH is -9.06 kcal/mol. Besides, in assay [2], the Kd is 36 µM and the dH is -10.3 kcal/mol.

Consider “ErbB4_PY3 peptide, alanine mutant PY3_A-1”, for which, in assay [1], the Kd turned out to be 110 µM and the dH is -10.7 kcal/mol. For the same substance, in assay [2], the Kd amounted to 70 µM and the dH is -15.9 kcal/mol.

In the case of “ErbB4_PY3 peptide, alanine mutant PY3_A-2”, in assay [1], the Kd came out at 83 µM and the dH was -13.1 kcal/mol. In assay [2], the Kd was 45 µM and the dH is -16.1 kcal/mol.

Take “ErbB4_PY3 peptide, alanine mutant PY3_A-3”: in assay [1], the Kd was determined as 62 µM and the dH was -10.3 kcal/mol. For the same substance, in assay [2], the Kd came to 46 µM and the dH is -16.9 kcal/mol.

As for “ErbB4_PY3 peptide, wildtype (12-mer with the PY3 PPXY motif of the ICD of human ErbB4)”, in assay [1], the Kd amounted to 56 µM and the dH was -7.72 kcal/mol. In assay [2], the Kd came to 31 µM and the dH is -13.3 kcal/mol.
